B1: Mothers against decapentaplegic homolog 3 (Homo sapiens), P84022 (parent)
chain: MSSILPFTPPIVKRLLGWKKGEQNGQEEKWCEKAVKSLVKKLKKTGQLDELEKAITTQNVNTKCITIPRSLDGRLQVSHRKGLPHVIYCRLWRWPDLHSHHELRAMELCEFAFNMKKDEVCVNPYHYQRVETPVLPPVLVPRHTEIPAEFPPLDDYSHSIPENTNFPAGIEPQSNIPETPPPGYLSEDGETSDHQMNHSMDAGSPNLSPNPMSPAHNNLDLQPVTYCEPAFWCSISYYELNQRVGETFHASQPSMTVDGFTDPSNSERFCLGLLSNVNRNAAVELTRRHIGRGVRLYYIGGEVFAECLSDSAIFVQSPNCNQRYGWHPATVCKIPPGCNLKIFNNQEFAALLAQSVNQGFEAVYQLTRMCTIRMSFVKGWGAEYRRQTVTSTPCWIELHLNGPLQWLDKVLTQMGSPSIRCSSVS
partner: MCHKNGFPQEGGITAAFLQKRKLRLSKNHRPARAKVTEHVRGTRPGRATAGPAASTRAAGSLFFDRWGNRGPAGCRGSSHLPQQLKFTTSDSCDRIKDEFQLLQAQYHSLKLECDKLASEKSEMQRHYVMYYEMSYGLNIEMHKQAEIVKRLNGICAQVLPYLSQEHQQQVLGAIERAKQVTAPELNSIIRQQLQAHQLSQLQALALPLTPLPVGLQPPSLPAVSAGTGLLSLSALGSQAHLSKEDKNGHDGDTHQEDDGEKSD
B2: U4/U6 small nuclear ribonucleoprotein Prp31 (Homo sapiens), Q8WWY3 (parent)
chain: MSLADELLADLEEAAEEEEGGSYGEEEEEPAIEDVQEETQLDLSGDSVKTIAKLWDSKMFAEIMMKIEEYISKQAKASEVMGPVEAAPEYRVIVDANNLTVEIENELNIIHKFIRDKYSKRFPELESLVPNALDYIRTVKELGNSLDKCKNNENLQQILTNATIMVVSVTASTTQGQQLSEEELERLEEACDMALELNASKHRIYEYVESRMSFIAPNLSIIIGASTAAKIMGVAGGLTNLSKMPACNIMLLGAQRKTLSGFSSTSVLPHTGYIYHSDIVQSLPPDLRRKAARLVAAKCTLAARVDSFHESTEGKVGYELKDEIERKFDKWQEPPPVKQVKPLPAPLDGQRKKRGGRRYRKMKERLGLTEIRKQANRMSFGEIEEDAYQEDLGFSLGHLGKSGSGRVRQTQVNEATKARISKTLQRTLQKQSVVYGGKSTIRDRSSGTASSVAFTPLQGLEIVNPQAAEKKVAEANQKYFSSMAEFLKVKGEKSGLMST
partner: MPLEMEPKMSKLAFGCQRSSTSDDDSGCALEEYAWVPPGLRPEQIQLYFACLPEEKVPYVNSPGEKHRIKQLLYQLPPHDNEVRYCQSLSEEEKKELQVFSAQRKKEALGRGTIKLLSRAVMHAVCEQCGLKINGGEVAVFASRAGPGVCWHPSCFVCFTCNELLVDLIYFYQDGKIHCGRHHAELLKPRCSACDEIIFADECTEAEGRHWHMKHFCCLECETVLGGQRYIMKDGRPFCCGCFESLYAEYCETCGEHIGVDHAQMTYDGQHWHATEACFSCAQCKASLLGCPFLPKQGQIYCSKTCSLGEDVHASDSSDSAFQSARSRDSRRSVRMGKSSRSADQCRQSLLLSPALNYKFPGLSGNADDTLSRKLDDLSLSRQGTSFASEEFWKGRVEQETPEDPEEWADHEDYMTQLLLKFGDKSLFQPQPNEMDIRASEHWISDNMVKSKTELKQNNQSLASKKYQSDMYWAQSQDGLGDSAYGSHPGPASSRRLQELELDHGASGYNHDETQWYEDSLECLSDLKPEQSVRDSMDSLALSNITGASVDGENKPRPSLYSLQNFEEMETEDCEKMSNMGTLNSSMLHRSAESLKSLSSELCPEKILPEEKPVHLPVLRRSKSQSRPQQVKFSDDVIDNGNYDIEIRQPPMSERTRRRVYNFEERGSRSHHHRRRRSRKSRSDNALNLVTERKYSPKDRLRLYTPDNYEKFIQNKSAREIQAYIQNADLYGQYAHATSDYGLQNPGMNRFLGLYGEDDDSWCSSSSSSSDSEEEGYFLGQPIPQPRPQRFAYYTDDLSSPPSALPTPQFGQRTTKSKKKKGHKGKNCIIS
B3: NADH dehydrogenase [ubiquinone] 1 alpha subcomplex assembly factor 4 (Homo sapiens), Q9P032 (parent)
chain: MGALVIRGIRNFNLENRAEREISKMKPSVAPRHPSTNSLLREQISLYPEVKGEIARKDEKLLSFLKDVYVDSKDPVSSLQVKAAETCQEPKEFRLPKDHHFDMINIKSIPKGKISIVEALTLLNNHKLFPETWTAEKIMQEYQLEQKDVNSLLKYFVTFEVEIFPPEDKKAIRSK
B4: von Hippel-Lindau disease tumor suppressor (Homo sapiens), P40337-2 (parent)
chain: MPRRAENWDEAEVGAEEAGVEEYGPEEDGGEESGAEESGPEESGPEELGAEEEMEAGRPRPVLRSVNSREPSQVIFCNRSPRVVLPVWLNFDGEPQPYPTLPPGTGRRIHSYRVYTLKERCLQVVRSLVKPENYRRLDIVRSLYEDLEDHPNVQKDLERLTQERIAHQRMGD
B5: Emerin (Homo sapiens), P50402 (parent)
chain: MDNYADLSDTELTTLLRRYNIPHGPVVGSTRRLYEKKIFEYETQRRRLSPPSSSAASSYSFSDLNSTRGDADMYDLPKKEDALLYQSKGYNDDYYEESYFTTRTYGEPESAGPSRAVRQSVTSFPDADAFHHQVHDDDLLSSSEEECKDRERPMYGRDSAYQSITHYRPVSASRSSLDLSYYPTSSSTSFMSSSSSSSSWLTRRAIRPENRAPGAGLGQDRQVPLWGQLLLFLVFVIVLFFIYHFMQAEEGNPF
partner: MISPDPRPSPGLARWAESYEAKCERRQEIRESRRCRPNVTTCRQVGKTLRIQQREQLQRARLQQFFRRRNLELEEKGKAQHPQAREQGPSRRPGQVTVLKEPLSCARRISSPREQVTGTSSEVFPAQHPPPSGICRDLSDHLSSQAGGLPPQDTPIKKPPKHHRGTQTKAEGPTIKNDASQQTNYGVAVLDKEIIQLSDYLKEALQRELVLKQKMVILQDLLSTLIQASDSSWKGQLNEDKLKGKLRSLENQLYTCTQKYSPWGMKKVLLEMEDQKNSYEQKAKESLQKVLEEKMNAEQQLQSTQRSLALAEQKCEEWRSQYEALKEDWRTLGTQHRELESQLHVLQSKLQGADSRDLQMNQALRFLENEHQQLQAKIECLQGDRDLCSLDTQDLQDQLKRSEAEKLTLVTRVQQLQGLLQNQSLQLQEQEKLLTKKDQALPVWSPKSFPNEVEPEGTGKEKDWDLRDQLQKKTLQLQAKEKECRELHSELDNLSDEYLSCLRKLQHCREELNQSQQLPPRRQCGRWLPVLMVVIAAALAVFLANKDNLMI
B6: Probetacellulin (Homo sapiens), P35070 (parent)
chain: MDRAARCSGASSLPLLLALALGLVILHCVVADGNSTRSPETNGLLCGDPEENCAATTTQSKRKGHFSRCPKQYKHYCIKGRCRFVVAEQTPSCVCDEGYIGARCERVDLFYLRGDRGQILVICLIAVMVVFIILVIGVCTCCHPLRKRRKRKKKEEEMETLGKDITPINEDIEETNIA
B7: Myelin proteolipid protein (Homo sapiens), P60201-2 (parent)
chain: MGLLECCARCLVGAPFASLVATGLCFFGVALFCGCGHEALTGTEKLIETYFSKNYQDYEYLINVIHAFQYVIYGTASFFFLYGALLLAEGFYTTGAVRQIFGDYKTTICGKGLSATFVGITYALTVVWLLVFACSAVPVYIYFNTWTTCQSIAFPSKTSASIGSLCADARMYGVLPWNAFPGKVCGSNLLSICKTAEFQMTFHLFIAAFVGAAATLVSLLTFMIAATYNFAVLKLMGRGTKF
partner: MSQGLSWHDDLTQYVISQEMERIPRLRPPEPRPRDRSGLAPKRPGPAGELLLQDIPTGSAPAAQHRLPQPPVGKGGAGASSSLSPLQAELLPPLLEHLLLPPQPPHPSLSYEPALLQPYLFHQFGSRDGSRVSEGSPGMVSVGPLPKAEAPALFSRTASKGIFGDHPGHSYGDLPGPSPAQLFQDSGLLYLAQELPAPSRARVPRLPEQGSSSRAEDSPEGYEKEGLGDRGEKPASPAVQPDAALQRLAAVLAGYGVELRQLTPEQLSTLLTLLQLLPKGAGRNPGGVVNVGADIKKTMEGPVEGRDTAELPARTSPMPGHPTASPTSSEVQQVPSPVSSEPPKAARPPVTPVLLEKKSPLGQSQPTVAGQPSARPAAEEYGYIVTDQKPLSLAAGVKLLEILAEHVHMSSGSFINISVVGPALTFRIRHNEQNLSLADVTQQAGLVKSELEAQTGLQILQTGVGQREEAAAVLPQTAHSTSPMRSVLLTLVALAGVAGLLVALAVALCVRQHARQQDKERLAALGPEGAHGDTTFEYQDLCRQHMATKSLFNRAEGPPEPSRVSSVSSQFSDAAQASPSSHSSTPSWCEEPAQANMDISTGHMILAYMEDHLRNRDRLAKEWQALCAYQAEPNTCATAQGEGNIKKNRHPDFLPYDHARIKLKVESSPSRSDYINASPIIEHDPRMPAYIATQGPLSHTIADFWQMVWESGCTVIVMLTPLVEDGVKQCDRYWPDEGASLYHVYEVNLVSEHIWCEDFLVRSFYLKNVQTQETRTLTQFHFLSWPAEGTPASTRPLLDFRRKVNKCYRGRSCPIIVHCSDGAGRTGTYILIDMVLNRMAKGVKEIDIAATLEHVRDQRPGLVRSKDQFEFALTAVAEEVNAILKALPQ
B8: Cyclin-dependent kinase 4 (Homo sapiens), P11802 (parent)
chain: MATSRYEPVAEIGVGAYGTVYKARDPHSGHFVALKSVRVPNGGGGGGGLPISTVREVALLRRLEAFEHPNVVRLMDVCATSRTDREIKVTLVFEHVDQDLRTYLDKAPPPGLPAETIKDLMRQFLRGLDFLHANCIVHRDLKPENILVTSGGTVKLADFGLARIYSYQMALTPVVVTLWYRAPEVLLQSTYATPVDMWSVGCIFAEMFRRKPLFCGNSEADQLGKIFDLIGLPPEDDWPRDVSLPRGAFPPRGPRPVQSVVPEMEESGAQLLLEMLTFNPHKRISAFRALQHSYLHKDEGNPE
partner: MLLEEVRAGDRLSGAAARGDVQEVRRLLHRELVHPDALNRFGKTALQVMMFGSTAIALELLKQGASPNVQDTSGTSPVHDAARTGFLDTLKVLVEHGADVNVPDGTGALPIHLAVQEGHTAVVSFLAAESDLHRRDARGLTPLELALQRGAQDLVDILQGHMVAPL

Variants of: B1
Details: with TLE5, Q08117-2

Row | effect of a mutation on the interaction | Variant
1 | with no effect | N197I
2 | with no effect | I170V

Variants of: B2
Details: with pric1_human PRICKLE1, Q96MT3

Row | effect of a mutation on the interaction | Variant
3 | with no effect | L107V

Variants of: B3
Details: with NDUFAF3, Q9BU61-2
Chain of NDUFAF3, Q9BU61-2 (Q9BU61 58-184): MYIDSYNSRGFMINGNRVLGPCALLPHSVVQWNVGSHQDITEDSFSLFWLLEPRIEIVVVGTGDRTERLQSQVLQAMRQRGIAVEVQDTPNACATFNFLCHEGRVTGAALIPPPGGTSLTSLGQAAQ

Row | effect of a mutation on the interaction | Variant
4 | with no effect | L65P

Variants of: B4
Details: with mdfi_human MDFI

Row | effect of a mutation on the interaction | Variant
5 | disrupting interaction strength | S38P
6 | disrupting interaction strength | S111I

Variants of: B5
Details: with TRAF3IP3, Q9Y228

Row | effect of a mutation on the interaction | Variant
7 | with no effect | P183H
8 | with no effect | P183T
9 | with no effect | S54F
10 | with no effect | D72V

Variants of: B6
Details: with sgta_human SGTA

Row | effect of a mutation on the interaction | Variant
11 | with no effect | C7G

Variants of: B7
Details: with PTPRN

Row | effect of a mutation on the interaction | Variant
12 | disrupting interaction strength | P15L
13 | disrupting interaction strength | W128L
14 | disrupting interaction strength | L87P
15 | disrupting interaction strength | A213E

Variants of: B8
Details: with cdn2d_human CDKN2D

Row | effect of a mutation on the interaction | Variant
16 | with no effect | R24H
17 | with no effect | R24C
18 | with no effect | S52N
19 | with no effect | N41S

From IntAct's records for PubMed 25910212
